Experimental data as given in US5451571A (The Cleveland Clinic Foundation, priority 1994, dated 1995).
No end group written: not given here.

System: brain punch homogenate from the A2 region
Type: biochemical, dog
Conditions: pH 7.5
Text: To study the metabolism of angiotensin in brain punch homogenates, ^125 I-labelled Ang I and Ang II (New England Nuclear, Boston, Mass., USA) were purified initially to remove the peptidase inhibitor trasylol by reverse phase high performance liquid chromatography (HPLC) using a Nova-Pak C column (Waters Associates, Milford, Mass., USA). Peptides were eluted isocratically with 33.6% acetonitrile (Burdick and Jackson, American Scientific Products, Columbus, Ohio, USA) in 0.13% heptafluorbutyric acid (HFBA; Sequenal grade, Pierce, Rockford, Ill., USA) at a flow rate of 1 ml/min. The effluent (0.25 ml/fraction) was collected in tubes precoated with bovine serum albumin (BSA; Pentex, Miles Scientific, Naperville, Ill., USA). After evaporation in a vacuum centrifuge (Savant, Farmingdale, N.Y., USA), the purified peptides were redissolved in water.
The metabolism of ^125 I-Ang I and ^125 I-Ang II was studied by incubating 10 μl of brain homogenates with 190 μl of an assay solution containing 50 pM labelled standards in 20 mM Tris HCl buffer, pH 7.5, and 0.01% BSA for 2 to 15 minutes at 37° C. The reactions were stopped by the addition of 100 μl of 32% acetonitrile containing 0.13% HFBA, followed by centrifugation at 18,000 g for 2 minutes. […]

Q: “^125 I-Ang II: 125I-labelled Ang II used as substrate (DRVYIHPF; also: 125I label; UniProt P01019 25-32, looked up)” was tested. Which “major / primary metabolic product of the labelled peptide” value did it give?
A: Ang-(1-7)
